Measured values published in patent US20090035281A1, “COMBINATION OF INTERLEUKIN-6 ANTAGONISTS AND ANTIPROLIFERATIVE DRUGS” (Universita Degli Studi "Magna Graecia" Di Catanzaro, priority 2005, published 2009).

B1: SANT-7: superantagonist of the IL-6 receptor, molecular variant of IL-6 totally incapable of binding gp130, sequence SEQ ID No. 4 (protein, listed as Homo sapiens)
chain: PVPPGEDSKDVAAPHRQPLTSSERIDKQIRDILDFISALRKETCNKSNMCESSKEADAFWNLNLPKMAEKDGCFYKGFNEETCLVKIITGLLEFEVYLEYLQNRFESSEEQARAVQMRTKDLIQFLQKKAKNLDAITTPDPTTNASLLTKLQAQNQWLQDMTTHLILRSFKEFLIRSLRALRAM

Experiments:
[1] = system: human IL-6-dependent multiple myeloma (MM) cell line, INA-6; assay: Detection of apoptosis (annexin V-FITC / propidium iodide flow cytometry), INA-6 cells with exogenous IL-6; type: cell-based; details: INA-6, exogenous IL-6 present, 3 days' exposure
Description: To detect the induction of cell death by apoptosis, double staining was performed with annexin V labelled with FITC and propidium iodide (PI). After treating 1×10^6 tumour cell for 48 h, the cells were washed with PBS and resuspended in 100 μl of HEPES buffer containing annexin V-FITC and propidium iodide (PI) (Annexin V-FLUOS staining kit; Roche Diagnostic, Indianapolis, Ind.). After 15 minutes' incubation at room temperature, the cells were analysed using a Coulter Epics XL flow cytometer to detect the presence of an apoptotic cell population staining positive for annexin V-FITC and negative for PI.
IL-6 has been identified as one of the main factors in the growth and survival of MM cells. INA-6 is a human myeloma cell line that requires exogenous IL-6 for growth in vitro (FIG. 1A). […] INA-6 cells were seeded and cultured on 96-well plates in the presence of exogenous IL-6, and then, after 3 days' exposure of the cells to the drugs, cell proliferation and apoptosis were determined.

[2] = system: INA-6 cells adhering to bone marrow stromal cells (BMSC); assay: Cell proliferation of INA-6 cells adhering to BMSC, no exogenous IL-6; type: cell-based, human; details: 70-80% confluent BMSC, no exogenous IL-6, 3 days after treatment
Description: (§1) Cell proliferation was measured by incorporation of [^3H]-thymidine (NEN Life Science Products, Boston, Mass.). Cells (2×10^4 cells/well) were incubated on 96-well culture plates in the presence or absence of 70-80% confluent BMSC at 37° C. with or without the study substance (in wells in triplicate) for 72 h. [^3H]-thymidine (0.5 μCi) was then added to each well for at least 8 h. Cells were collected on glass filters with an automatic cell collector (Cambridge Technology, Cambridge, Mass.) and counted using a Micro-Beta Trilux counter (Wallac, Gaithersburgh, Md.).
Since the paracrine production of IL-6 occurs when the MM cells adhere to BMSC (Uchiyama, H., et al.; Blood, 1993; 82:3712-3720), the supporting effect of BMSC for the in-vitro growth of INA-6 cells after exposure to the drugs was evaluated. The INA-6 cells were seeded on 70-80% confluent BMSC, in the absence of exogenous IL-6, and the cell proliferation was established 3 days after the treatment.

[3] = system: human IL-6-dependent multiple myeloma (MM) cell line, INA-6; assay: Cell proliferation assay ([3H]-thymidine incorporation), INA-6 cells with exogenous IL-6; type: cell-based; details: INA-6, exogenous IL-6 present, 3 days' exposure
Description: The formation, characterisation and in-vitro culturing of the IL-6-dependent human MM cell line INA-6 is described in Burger, R., et al.; Hematol. J., 2001; 2:42-53. The cells were maintained in RPMI 1640 culture medium (GIBCO, Grand Island, N.Y.) added with 10% foetal calf serum (FCS, Hyclone, Logan, Utah), L-glutamine 2 mM (GIBCO), 100 μg/ml of streptomycin (GIBCO) and 100 U/ml of penicillin (GIBCO) in the presence of 2.5 ng/ml of IL-6 at 37° C. in a 5% CO2 atmosphere
as §1
IL-6 has been identified as one of the main factors in the growth and survival of MM cells. […] INA-6 cells were seeded and cultured on 96-well plates in the presence of exogenous IL-6, and then, after 3 days' exposure of the cells to the drugs, cell proliferation and apoptosis were determined.

[4] = system: INA-6 MM cells in human foetal bone implant; assay: SCID-hu INA-6 mouse model of human MM, tumour growth by serum shuIL-6R; type: in vivo; details: for reduction in serum shuIL-6R (marker of tumour growth) vs control group: s.c., SANT-7 3.3 mg/kg or Dex 1 mg/kg alone, 5 consecutive days; for tolerability in SCID-hu mice: treatment with single agent
Description: Male SCID C-17 mice aged from six to eight weeks (Taconic Germany, N.Y.) were housed and monitored in our Animal Research Facility. All the experimental procedures and protocols were approved by the Institutional Committee on the Treatment and Use of Animals. Human foetal femur transplants were implanted in SCID (SCID-hu) mice, as described in Urashima, M., et al.; Blood, 1997; 90(2): 754-65; Tassone, P., et al.; Blood, 2004. Four weeks after implantation, 2.5×10^6 INA-6 MM cells in 50 μl of PBS were injected into the foetal bone implant in the SCID-hu hosts. Serum levels of the interleukin-6 soluble receptor (shuIL-6R) (R & D Systems Inc., Minneapolis, Minn.) were monitored in the mice.
(§2) In these mice serum shuIL-6R was measured as a marker of tumour growth and disease severity, since it is released by the INA-6 cells. First, the pharmacokinetics of SANT-7 was determined.

[5] = system: purified CD34+ HPC; assay: Clonogenic progenitor assays in methylcellulose; type: cell-based, human; details: for CFC-GM: SANT-7 200 ng/ml, Dex 10^-5 M; for Total: total colonies
Excerpt: (§3) Peripheral blood mobilised CD34^+ HPC were isolated from leukapheresis products of patients with haematopoietic and non-haematopoietic tumours, treated with high-dose chemotherapy and G-CSF or GM-CSF. Peripheral blood mononuclear cells were obtained by centrifugation across a Ficoll density gradient (Seromed, Berlin, Germany), washed and submitted to positive selection using the CD34 Progenitor Cell Isolation Kit (Miltenyi Biotech, Bergish Gladbach, Germany). In brief, CD34^+ HPC were magnetically labelled indirectly using a primary monoclonal antibody conjugated with a hapten and an anti-hapten antibody coupled with MACS MicroBeads (Miltenyi). The labelled cells were subsequently enriched with the MiniMACS magnetic field.
The clonogenic progenitor assays were carried out in methylcellulose as described previously with minor modifications. In brief, 1×10^3 freshly isolated CD34^+ HCP were seeded in IMDM (GIBCO) containing 1% methylcellulose, 30% foetal calf serum (Hyclone), 1% bovin serum albumin (Sigma), L-glutamine 2 mM (GIBCO) and 2β-mercaptoethanol 10^−4 M (Stemcell Technologies Inc., Vancouver, Canada). To induce granulomonocytic or erythroid differentiation, the cells were stimulated with IL-3 (50 ng/ml), GM-CSF (100 ng/ml), G-CSF (100 ng/ml) or IL-3 (50 ng/ml), GM-CSF (100 ng/ml), SCF (50 ng/ml) ed Epo (3 U/ml), respectively. […] 1 ml aliquots were plated in triplicate on 35 mm culture plates (Falcon) at 37° C. in a 5% CO2 humidified atmosphere. After 14 days' culture, the granulomonocytic colonies (CFC-GM) and the erythroid colonies (BFU-E) were counted by examining the cultures under an inverted microscope.

[6] = system: human CD34+ Haematopoietic Progenitor Cells (HPC); assay: Liquid culture of CD34+ HPC, flow cytometric cell cycle (DNA content, PI) analysis; type: cell-based; details: 6 days liquid culture with haemopoietins + IL-6
Excerpt: as §3

[7] = In-vivo kinetics of SANT-7 after s.c. injection; parameters: species or system SCID-hu mouse
Description: A) Sant-7 (3.3 mg/kg) was injected s.c. into a SCID-hu mouse and its kinetics was evaluated with serial determinations of IL-6 in serum. B) Tumour growth in SCID-hu mice implanted with INA-6 cells was monitored with serial measurements of shuIL-6R. […] P values were obtained by comparison between the control groups and the groups treated with the combination. The data were expressed as mean±SE.
as §2

[8] = single s.c. injection 3.3 mg/kg

Row | Molecule | death by apoptosis in MM cells [1] | growth inhibition of INA-6 cells adhering to BMSC [2] | growth inhibition of MM cells [3] | reduction in serum shuIL-6R (marker of tumour growth) vs control group [4] | tolerability in SCID-hu mice [4] | effect on generation of CFC-GM and BFU-E in response to haemopoietins ([5]; CD34+ HPC, clonogenic assays) | CFC-GM ([5]; colonies, IL3 + GM + G + IL6 (granulomonocytic differentiation), 1 × 10^3 cells/plate, day 14, mean ± SD) | CFC-GM ([5]; colonies, IL3 + GM + SCF + Epo + IL6 (erythroid differentiation), 1 × 10^3 cells/plate, day 14, mean ± SD) | BFU-E ([5]; colonies, IL3 + GM + SCF + Epo + IL6, 1 × 10^3 cells/plate, day 14, mean ± SD) | Total ([5]; IL3 + GM + G + IL6, 1 × 10^3 cells/plate, day 14, mean ± SD) | Total ([5]; IL3 + GM + SCF + Epo + IL6, 1 × 10^3 cells/plate, day 14, mean ± SD) | apoptosis rate of CD34+ cells [6] | effect on cell proliferation (cell cycle) of CD34+ cells [6] | time drug remains in circulation after the injection [7, 8] [h] | time to SANT-7 serum peak [7, 8] [min] | clearance ([7]; subcutaneous administration)
1 | C[C@@H]1C[C@H]2[C@@H]3CCC4=CC(=O)C=C[C@]4(C)[C@@]3(F)[C@@H](O)C[C@]2(C)[C@@]1(O)C(=O)CO [Dex, dexamethasone, reference compound] | nor induced apoptosis | activity was inhibited | neither modified cell proliferation | did not induce any significant reduction | well tolerated | – | – | – | – | – | – | – | – | – | – | –
2 | B1 | high rates | reduced the efficacy of the growth inhibition | high rates of growth inhibition | did not induce any significant reduction | well tolerated | does not interfere appreciably | 73 ± 2 | 21 ± 1 | 50 ± 2 | 73 ± 2 | 71 ± 1 | No significant apoptosis rate | does not significantly affect cell proliferation | 4 | 30 | very rapid clearance
